Experimental findings from patent US20250075192 are described below.

The data set concerns the target T1, Wild type RepD from Staphylococcus aureus, as oriD DNA-RepD adduct.
T1 chain: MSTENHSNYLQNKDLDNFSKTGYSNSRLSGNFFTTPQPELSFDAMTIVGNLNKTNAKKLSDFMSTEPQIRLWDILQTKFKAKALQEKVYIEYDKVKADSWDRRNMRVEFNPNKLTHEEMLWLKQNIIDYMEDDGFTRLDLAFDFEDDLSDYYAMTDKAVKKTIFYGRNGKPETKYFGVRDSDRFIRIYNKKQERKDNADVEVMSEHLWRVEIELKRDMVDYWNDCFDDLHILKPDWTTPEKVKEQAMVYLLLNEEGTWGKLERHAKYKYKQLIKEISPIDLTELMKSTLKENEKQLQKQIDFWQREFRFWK

B1: PcrA-DM1, a double cysteine mutant of PcrA, stochastically labeled with a mixture of donor and acceptor fluorophores (protein)
chain: MNFLSEQLLAHLNKEQQEAVRTTEGPLLIMAGAGSGKTRVLTHRIAYLMAEKHVAPWNILAITFTNKAAREMRERVQSLLGGAAEDVWISTFHSMAVRILRRDIDRIGINRNFSILDPTDQLSVMKTILKEKNIDPKKFEPRTILGTISAAKNELLPPEQFAKRASTYYEKVVSDVYQEYQQRLLRCHSLDFDDLIMTTIQLFDRVPDVLHYYQYKFQYIHIDEYQDTNRAQYTLVKKLAERFQNIAAVGDADQSIYRWRGADIQNILSFERDYPNAKVILLEQNYRSTKRILQAANEVIEHNVNRKPKRIWTENPEGKPILYYEAMNEADEAQFVAGRIREAVERGERRYRDFAVLYRTNAQSRVMEEMLLKANIPYQIVGGLKFYDRKEIKDILAYLRVIANPDDDCSLLRIINVPKRGIGASTIDKLVRYAADHELSLFEALGELEMIGLGAKAAGALAAFRSQLEQWTQLQEYVSVTELVEEVLDKSGYREMLKAERTIEAQSRLENLDEFLSVTKHFENVSDDKSLIAFLTDLALISDLDELDGTEQAAEGDAVMLMTLHAAKGLEFPVVFLIGMEEGIFPHNRSLEDDDEMEEERRLAYVGITRAEEELVLTSAQMRTLFGNIQMDPPSRFLNEIPAHLLETASRRQAGASRPAVSRPQASGAVGSWKVGDRANHRKWGIGTVVSVRGGGDDQELDIAFPSPIGIKRLLAKFAPIEKV
For the protein B1, the “EFRET distribution of dual labeled PcrA-DM1 (smFRET, intramolecular conformation of PcrA)” value is “the presence of RepD indeed biases PcrA toward the closed high EFRET conformation”.
